Data published in PMC3663191 (mBio, 2013).
“And” between values parts separate entries of the source, which are not always exact repeats. Equal entries are not always repeated.

Biological target: the molecule itself
Experiment: SEC

| Protein | stoichiometry N |
| --- | --- |
| WspR^wt (His-tagged WspR, purified) (enzyme, Pseudomonas aeruginosa) MHNPHESKTDLGAPLDGAVMVLLVDDQAMIGEAVRRSLASEAGIDFHFCSDPQQAVAVANQIKPTVILQDLVMPGVDGLTLLAAYRGNPATRDIPIIVLSTKEEPTVKSAAFAAGANDYLVKLPDAIELVARIRYHSRSYIALQQRDEAYRALRESQQQLLETNLVLQRLMNSDGLTGLSNRRHFDEYLEMEWRRSLREQSQLSLLMIDVDYFKSYNDTFGHVAGDEALRQVAGAIREGCSRSSDLAARYGGEEFAMVLPGTSPGGARLLAEKVRRTVESLQISHDQPRPGSHLTVSIGVSTLVPGGGGQTFRVLIEMADQALYQAKNNGRNQVGLMEQPVPPAPAG | 4 and 2 |
| WspR^V72D (His-tagged WspR V72D variant, purified) (enzyme, Pseudomonas aeruginosa) MHNPHESKTDLGAPLDGAVMVLLVDDQAMIGEAVRRSLASEAGIDFHFCSDPQQAVAVANQIKPTVILQDLDMPGVDGLTLLAAYRGNPATRDIPIIVLSTKEEPTVKSAAFAAGANDYLVKLPDAIELVARIRYHSRSYIALQQRDEAYRALRESQQQLLETNLVLQRLMNSDGLTGLSNRRHFDEYLEMEWRRSLREQSQLSLLMIDVDYFKSYNDTFGHVAGDEALRQVAGAIREGCSRSSDLAARYGGEEFAMVLPGTSPGGARLLAEKVRRTVESLQISHDQPRPGSHLTVSIGVSTLVPGGGGQTFRVLIEMADQALYQAKNNGRNQVGLMEQPVPPAPAG | 4 and 2 |
